# Reference: article PMC5743843 (Protein Science : A Publication of the Protein Society, 2017)
# B1: FtsB (natural protein)
# chain: MGKLTLLLLAILVWLQYSLWFGKNGIHDYTRVNDDVAAQQATNAKLKARNDQLFAEIDDLNGGQEALEERARNELSMTRPGETFYRLVPDASKRAQSAGQNNR
# B2: urease accessory protein UreG (enzyme)
# chain: MVKIGVCGPVGSGKTALIEALTRHMSKDYDMAVITNDIYTKEDAEFMCKNSVMPRERIIGVETGGCPHTAIREDASMNLEAVEEMHGRFPNLELLLIESGGDNLSATFNPELADFTIFVIDVAEGDKIPRKGGPGITRSDLLVINKIDLAPYVGADLKVMERDSKKMRGEKPFIFTNIRAKEGLDDVIAWIKRNALLED
# B3: urease accessory protein UreF (natural protein)
# chain: MDKGKSVKSTEKSVGMPPKTPKTDNNAHVDNEFLILQVNDAVFPIGSYTHSFGLETYIQQKKVTNKESALEYLKANLSSQFLYTEMLSLKLTYESALQQDLKKILGVEEVIMLSTSPMELRLANQKLGNRFIKTLQAMNELDMGEFFNAYAQKTKDPTHATSYGVFAASLGIELKKALRHYLYAQTSNMVINCVKSVPLSQNDGQKILLSLQSPFNQLIEKTLELDESHLCTASVQNDIKAMQHESLYSRLYMS
# B4: extracellular region of CRTAM (domain or fragment)
# chain: SLTNHTETITVEEGQTLTLKCVTSLRKNSSLQWLTPSGFTIFLNEYPALKNSKYQLLHHSANQLSITVPNVTLQDEGVYKCLHYSDSVSTKEVKVIVLATPFKPILEASVIRKQNGEEHVVLMCSTMRSKPPPQITWLLGNSMEVSGGTLHEFETDGKKCNTTSTLIIHTYGKNSTVDCIIRHRGLQGRKLVAPFRFEDLVTDEETASDALERNSLSSQDPQQPTSTVSVTEDSSTSEIDKEEKEQTTQDPDLTTEANPQYLGLARKKSG
# What was measured:
# FtsL = molecular target: T1, FtsL (E. coli, UniProt P0AEN4 1-121); test: FRET or BRET + other: single molecule photobleaching
# T1 sequence: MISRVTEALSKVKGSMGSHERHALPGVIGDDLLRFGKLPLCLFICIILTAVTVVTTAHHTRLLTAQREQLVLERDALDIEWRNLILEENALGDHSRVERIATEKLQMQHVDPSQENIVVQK
# [1] = molecular target: B3; test: crystal structure
# [2] = molecular target: T2, urease accessory protein UreH (Helicobacter pylori, UniProt Q09067 1-265); test: crystal structure
# T2 sequence: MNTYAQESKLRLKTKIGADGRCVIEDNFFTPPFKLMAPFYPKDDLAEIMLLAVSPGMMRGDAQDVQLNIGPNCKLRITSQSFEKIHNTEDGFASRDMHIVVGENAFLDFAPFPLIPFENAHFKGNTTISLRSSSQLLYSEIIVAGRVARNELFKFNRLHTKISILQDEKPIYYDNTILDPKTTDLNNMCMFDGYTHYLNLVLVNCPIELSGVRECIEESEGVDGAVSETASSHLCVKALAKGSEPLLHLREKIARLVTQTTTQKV
# crystal structure = molecular target: the molecule itself; test: crystal structure
# [3] = molecular target: T3, extracellular region of Nectin-Like 2 (UniProt Q9BY67 45-374); test: SPR
# T3 sequence: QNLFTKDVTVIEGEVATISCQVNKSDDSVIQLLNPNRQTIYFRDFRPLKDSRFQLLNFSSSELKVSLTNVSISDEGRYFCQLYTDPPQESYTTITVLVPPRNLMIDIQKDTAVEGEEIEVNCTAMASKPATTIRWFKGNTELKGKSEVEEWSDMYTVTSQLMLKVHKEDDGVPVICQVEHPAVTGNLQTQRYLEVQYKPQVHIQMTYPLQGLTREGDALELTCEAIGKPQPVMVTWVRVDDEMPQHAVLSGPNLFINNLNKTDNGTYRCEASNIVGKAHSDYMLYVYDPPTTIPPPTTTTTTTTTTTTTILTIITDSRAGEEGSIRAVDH
binder,measurement,setting,value
B1,stoichiometry N,FtsL,1 FtsB per FtsL
B2,binding result,[1],binds
B3,binding result,[2],binds
same,binding result,crystal structure,binds
B4,Kd,[3],37.2 nM
